Binding result, LogEC50 and EC50 data for five molecules are collected here from patent publication US20210206855A1 (ADAGENE, published 2021).

One assay concerns the target T1, human CD80 (recombinant) (human, UniProt P33681 35-242, limits assumed, biotinylated where used in solution).
T1 construct: also called biotinylated CD80
T1 sequence (looked up): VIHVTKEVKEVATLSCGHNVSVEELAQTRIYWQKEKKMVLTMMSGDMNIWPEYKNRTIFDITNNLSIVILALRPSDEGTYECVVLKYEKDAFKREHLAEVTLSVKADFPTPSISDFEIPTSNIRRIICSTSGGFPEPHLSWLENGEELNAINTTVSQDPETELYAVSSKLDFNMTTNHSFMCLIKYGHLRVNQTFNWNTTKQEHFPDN
Briefly: flow cytometry on yeast displaying CTLA4; Normalized FACS Bound, human WT = 1. In general terms: Flow cytometry measures light scatter and fluorescence of single cells or particles in a stream.

Assay [1] deals with T2, human CD86 (epitope mapping reagent) (human, UniProt P42081 24-247, limits assumed).
T2 sequence (looked up): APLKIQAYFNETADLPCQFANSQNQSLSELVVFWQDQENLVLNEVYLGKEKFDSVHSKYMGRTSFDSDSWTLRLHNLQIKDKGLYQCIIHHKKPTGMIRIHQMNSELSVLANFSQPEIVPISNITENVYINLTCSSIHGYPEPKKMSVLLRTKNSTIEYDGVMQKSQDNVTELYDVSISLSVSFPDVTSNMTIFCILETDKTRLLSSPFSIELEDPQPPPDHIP
The assay is described as above.

A further assay concerns the target T3, mouse CD86 (mouse, UniProt P42082 24-244, limits assumed).
T3 sequence (looked up): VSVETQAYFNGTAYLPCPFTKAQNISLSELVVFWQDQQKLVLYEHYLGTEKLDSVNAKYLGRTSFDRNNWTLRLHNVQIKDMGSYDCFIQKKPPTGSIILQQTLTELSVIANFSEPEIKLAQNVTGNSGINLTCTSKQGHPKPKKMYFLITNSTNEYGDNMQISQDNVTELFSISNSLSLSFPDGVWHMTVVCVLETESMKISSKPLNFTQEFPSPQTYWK
Described as above.

In assay [2] the target is T4, recombinant human CTLA4-Fc (Sino Biological, 11159-H03H) (human, UniProt P16410 37-162).
T4 construct: bought; whole entry named; Biotinylated in the yeast display assays; also called human CTLA4 fused with human FC fragment; biotinylated CTLA4-Fc; not shown: human Fc fragment
T4 sequence (looked up): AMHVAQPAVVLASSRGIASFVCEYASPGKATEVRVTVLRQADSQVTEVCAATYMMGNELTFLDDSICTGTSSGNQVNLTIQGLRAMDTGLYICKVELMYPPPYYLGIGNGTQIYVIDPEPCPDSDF
Put plainly: ELISA, coated human CTLA4-Fc. The method, then: (§1) Plates were blocked with PBS supplemented with 3% non-fat milk at 37° C. for 1 hour. After washing, 100 μL of 3-fold serial dilutions of antibodies were added to each well. After incubation at 37° C. for 1 hour, plates were washed four times, and […] conjugated anti-human IgG (Fab specific) (1:6000 dilution) was added to each well. Plates were incubated at 37° C. for 1 hour, washed four times, and then 50 μL TMB substrate solution was added to each well, and the plate was incubated at room temperature. […] The EC₅₀ was evaluated by fitting the ELISA data using the asymmetrical sigmoidal (five-parameter logistic equation) model of GraphPad Prism 6 software.
The purified activatable antibodies were treated with the proteases which recognize the cleavage sequences, and were then tested to determine whether removal of the masking peptide restored their activity.

In assay [3] the target is T4, recombinant human CTLA4-Fc (Sino …). Briefly: ELISA, coated human CTLA4-Fc, batch 1. The method, then:
as §1
(In general: ELISA stands for enzyme-linked immunosorbent assay.)

The target is the same in assay [4]. Briefly: ELISA, coated human CTLA4-Fc, batch 2. The method, then: as §1
The target is the same in assay [5]. Put plainly: ELISA, coated human CTLA4-Fc, batch 1; Data Batch 1. The method, then: as §1
Assay [6] shares this target. Briefly: ELISA, coated human CTLA4-Fc (as Example 8). The method, then: as §1
The target is the same in assay [7]. Briefly: ELISA, coated human CTLA4-Fc (as Example 8). The method, then:
as §1
This is another data set of the same source.

Assay [8] shares this target. Put plainly: ELISA, coated human CTLA4-Fc (as Example 8). The method, then: as §1
This is another data set of the same source.

In assay [9] the target is T5, full-length human CTLA4 on the cell surface (HEK293F transfectants); also activated human T cells, … (human, UniProt P16410 36-223).
T5 construct: whole, on cells; used for every assay with human CTLA4 on cells; also called HEK293F/hCTLA-4; HEK293F/hCTLA4
T5 sequence (looked up): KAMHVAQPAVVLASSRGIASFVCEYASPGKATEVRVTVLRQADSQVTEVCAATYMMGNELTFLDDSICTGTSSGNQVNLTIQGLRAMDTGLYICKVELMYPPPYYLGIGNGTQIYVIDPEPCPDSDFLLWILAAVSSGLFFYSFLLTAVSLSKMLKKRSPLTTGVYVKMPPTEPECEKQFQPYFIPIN
Put plainly: flow cytometry on HEK293F cells transiently expressing full-length human CTLA4; Alexa Fluor 647 anti-human Fc. The method, then: (§2) The affinities of the antibodies were also assessed against human and mouse CTLA4 transiently expressed on the surface of HEK293F cells (FIG. 2). Briefly, HEK293F cells were transfected with a plasmid expressing full-length human, monkey or mouse CTLA4 from a bicistronic IRES vector also encoding EGFP, and EGFP expression was used to identify the transfected cells. After 48 hours, the mammalian cell suspension (2×10⁵/well) was transferred to an Eppendorf tube, centrifuged, the supernatant was discarded, the cells were resuspended with 1 mL PBSA (to a density is 4×10⁶ cells/mL), and added to a 96 well plate. […] The cells were then washed once prior to analysis by flow cytometry (Beckman® CytoFlex).

In assay [10] the target is T6, full-length mouse CTLA4 on the cell surface (HEK293F transfectants; also activated mouse T cells) (mouse, UniProt P09793 36-223).
T6 construct: whole, on cells; also called mouse cell-surface exposed mouse CTLA4
Put plainly: flow cytometry on HEK293F cells transiently expressing full-length mouse CTLA4; Alexa Fluor 647 anti-human Fc. The method, then:
as §2

Assay [11] deals with T7, recombinant human CTLA4 fused with human Fc and His tag (human, UniProt P16410 37-162, limits assumed, biotinylated where used in solution).
T7 construct: also called biotinylated human CTLA4 fused with human FC and His tag; recombinant human CTLA4 proteins; not shown: human Fc and His tag
T7 sequence (looked up): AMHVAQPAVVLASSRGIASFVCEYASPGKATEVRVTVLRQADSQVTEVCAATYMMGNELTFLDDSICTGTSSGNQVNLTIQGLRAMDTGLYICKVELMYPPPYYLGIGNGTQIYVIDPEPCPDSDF
Put plainly: competition ELISA: plate-bound human CTLA4-Fc-His, biotinylated human CD80 as the blocked ligand, HRP-neutravidin. The method, then:
Plates were blocked with PBS supplemented with 2% (w/v) skim milk at 37° C. for 1 hour. […] Plates were washed four times, and 100 μL HRP-neutravidin (1:1000) was added to each well and incubated at 37° C. for 1 hour. Plates were washed as previously described, and 50 μL TMB substrate solution was added and incubated at room temperature for 5 minutes before the reaction was stopped by 50 μL sulfate acid (2M).

Assay [12] concerns the target T4, recombinant human CTLA4-Fc (Sino …). Put plainly: ELISA, captured Fab.
In assay [13] the target is T8, cynomolgus monkey CTLA4 antigen fused with human FC fragment (cynomolgus monkey, UniProt G7PL88 36-161, fused to a human Fc fragment that is not in the letters).
T8 sequence: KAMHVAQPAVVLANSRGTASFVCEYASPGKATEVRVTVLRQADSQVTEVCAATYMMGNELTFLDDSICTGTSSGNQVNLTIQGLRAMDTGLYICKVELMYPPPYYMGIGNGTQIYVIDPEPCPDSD
Put plainly: ELISA, captured Fab.

Assay [14] concerns the target T9, mouse CTLA4 antigen fused with human FC fragment (mouse, UniProt P09793 36-162, limits assumed).
T9 construct: not shown: human Fc fragment
Briefly: ELISA, captured Fab.

B1: human CTLA4 mutant YLGIG105FVGMG displayed on yeast (receptor)
chain: KAMHVAQPAVVLASSRGIASFVCEYASPGKATEVRVTVLRQADSQVTEVCAATYMMGNELTFLDDSICTGTSSGNQVNLTIQGLRAMDTGLYICKVELMYPPPYFVGMGNGTQIYVIDPE
notes: also called G strand changed to mouse
As to B1, the binding result (with human CD80 (recombinant); in assay [1]; with mouse CD86) was “binds” throughout.

B2: TY22404 (antibody, IgG1, V domains shown)
VH: EVQLVESGGGLVQPGGSLRLSCAASGYSISSGYHWSWIRQAPGKGLEWLARIDWDDDKYYSTSLKSRLTISRDNSKNTLYLQLNSLRAEDTAVYYCARSYVYFDYWGQGTLVTVSS
VL: EVGSYPNPSSDCVPYYYACAYSGRSAGGGGSPLGLAGSGGSDIQLTQSPSSLSASVGDRVTITCRASQSVRGRFLAWYQQKPGKAPKLLIYDASNRATGIPSRFSGSGSGTDFTLTISSLQPEDFATYYCQQSSSWPPTFGQGTKVEIKR
notes: also called masking peptide B13197
The EC50 is the concentration giving half of the maximal effect. Turning to B2, the LogEC50 is -7.01 log M in [2], -6.75 log M in [3] and -6.89 log M in assay [4]. The EC50 in assay [3] worked out at 178 nM; in assay [4], 128 nM; in assay [5] it was 178 nM.

B3: TY22404 (peptide as listed in Tables 26 and 29) (antibody, V domains shown)
VH: EVQLVESGGGLVQPGGSLRLSCAASGYSISSGYHWSWIRQAPGKGLEWLARIDWDDDKYYSTSLKSRLTISRDNSKNTLYLQLNSLRAEDTAVYYCARSYVYFDYWGQGTLVTVSS
VL: EVGSYPNPSSDCVPYYYACAYSGRSAGGGGTPLGLAGSGGSDIQLTQSPSSLSASVGDRVTITCRASQSVRGRFLAWYQQKPGKAPKLLIYDASNRATGIPSRFSGSGSGTDFTLTISSLQPEDFATYYCQQSSSWPPTFGQGTKVEIKR
notes: kept apart from m68
Consider B3, for which the EC50 stood at 68.4 nM in assay [6], 122 nM in [7] and 117 nM in assay [8].

B4: TY21588 (antibody, V domains shown)
VH: EVQLVESGGGLVQPGGSLRLSCAASGYSISSGYHWDWIRQAPGKGLEWVSGISGYGGSTYYADSVKGRFTISRDNSKNTLYLQLNSLRAEDTAVYYCARHSYYGSGNFDYWGQGTLVTVSS
VL: DIQLTQSPSSLSASVGDRVTITCRASESVDFFGKSFLHWYQQKPGKAPKLLIYDASNLETGVPSRFSGSGSGTDFTLTISSLQPEDFATYYCQQSYSWPPTFGQGTKVEIKR
With B4, the binding result in [9], in [10] and in [11] was “binds” each time.

B5: B15732 (Fab, V domains shown)
VH: EVQLVESGGGLVQPGGSLRLSCAASGYSISSGYHWDWIRQAPGKGLEWVSGISGYGGSTYYADSVKGRFTISRDNSKNTLYLQLNSLRAEDTAVYYCARHSYYGSGNFDYWGQGTLVTVSS
VL: DIQLTQSPSSLSASVGDRVTITCRASESVDFFGKSFLHWYQQKPGKAPKLLIYDASNLETGVPSRFSGSGSGTDFTLTISSLQPEDFATYYCQQSYSWPPTFGQGTKVEIKR
notes: Fab hit from E. coli
With B5, the binding result in assay [12], in assay [13] and in assay [14] was “binds” in each case.
